These results are taken from US20200087364A1 (IMMATICS BIOTECHNOLOGIES, published 2020).

This assay deals with T1, HLA-A*01:01 (human).
T1 construct: MHC class I monomer first loaded with a UV-sensitive peptide (not identified) that is cleaved by UV irradiation and exchanged for the tested peptide; captured on streptavidin plates, detected with anti-β2m; also called peptide-receptive MHC molecules
Description: UV-ligand exchange, anti-b2m ELISA. The method, boiled down:
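Peptide–MHC complexes made by UV-ligand exchange of a UV-cleavable peptide; exchange yield measured by ELISA on streptavidin-coated plates, samples diluted 100-fold, 1 h 37 °C. Detection with 2 ug/ml HRP anti-β2m, TMB, A450; refolded HLA-A*02:01/MLA-001 monomer standards 15-500 ng/ml.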
On the technique in general: In an ELISA, binding on a coated surface is turned into a signal by an enzyme label.

B1: NTDSMTLNNTAY (peptide)
peptide: NTDSMTLNNTAY
In turn, B1 had a peptide exchange yield of more than 75%.

B2: ESMDIFPLGW (peptide)
peptide: ESMDIFPLGW
In turn, B2 displayed a peptide exchange yield of 20 to 50%.

B3: LTDPQVSYV (peptide)
peptide: LTDPQVSYV
Molecule B3 gave a peptide exchange yield of 50 to 75%.

B4: YPVVVAESMY (peptide)
peptide: YPVVVAESMY
Regarding B4, the peptide exchange yield lay in the range of 20 to 50%.

B5: YFGNYFTYY (peptide)
peptide: YFGNYFTYY
In the case of B5, the peptide exchange yield is 10 to 20%.

B6: ETSFSTSHY (peptide)
peptide: ETSFSTSHY
Regarding B6, the peptide exchange yield is more than 75%.

B7: RTGIFPYRF (peptide)
peptide: RTGIFPYRF
Turning to B7, the peptide exchange yield lay in the range of 20 to 50%.

B8: FTAEEGQLY (peptide)
peptide: FTAEEGQLY
Consider B8, for which the peptide exchange yield was 50 to 75%.

B9: IMLSVDQHLY (peptide)
peptide: IMLSVDQHLY
Take B9: the peptide exchange yield was in the range of 50 to 75%.

B10: QTYMDGLLHY (peptide)
peptide: QTYMDGLLHY
For B10, the peptide exchange yield is more than 75%.

B11: YADPSANRDLL (peptide)
peptide: YADPSANRDLL
Consider B11, for which the peptide exchange yield lay in the range of 20 to 50%.

B12: NKEINYFMY (peptide)
peptide: NKEINYFMY
With B12, the peptide exchange yield fell in the range of 50 to 75%.

B13: QALQDKLQTFY (peptide)
peptide: QALQDKLQTFY
Consider B13, for which the peptide exchange yield was in the range of 20 to 50%.

B14: LSDPQAELQFY (peptide)
peptide: LSDPQAELQFY
B14 showed a peptide exchange yield of more than 75%.

B15: PANYLGKMTY (peptide)
peptide: PANYLGKMTY
For the molecule B15, the peptide exchange yield lay within 50 to 75%.

B16: RLSTIRHLY (peptide)
peptide: RLSTIRHLY
For the molecule B16, the peptide exchange yield was 50 to 75%.

B17: SVDSNLVAY (peptide)
peptide: SVDSNLVAY
As for B17, the peptide exchange yield lay within 50 to 75%.

B18: ESAATGQLDY (peptide)
peptide: ESAATGQLDY
As to B18, the peptide exchange yield is 50 to 75%.

B19: AVNALQSVY (peptide)
peptide: AVNALQSVY
In the case of B19, the peptide exchange yield was 20 to 50%.

B20: ASSLDSLHY (peptide)
peptide: ASSLDSLHY
In turn, B20 registered a peptide exchange yield of more than 75%.

B21: TAKAPSTEY (peptide)
peptide: TAKAPSTEY
In turn, B21 had a peptide exchange yield of 20 to 50%.

B22: SADHPGLTF (peptide)
peptide: SADHPGLTF
Consider B22, for which the peptide exchange yield was 20 to 50%.

B23: STSRLTLFS (peptide)
peptide: STSRLTLFS
B23 showed a peptide exchange yield of 20 to 50%.

B24: LTDRDVSFY (peptide)
peptide: LTDRDVSFY
In turn, B24 returned a peptide exchange yield of more than 75%.

B25: ITVDVRDEF (peptide)
peptide: ITVDVRDEF
As for B25, the peptide exchange yield fell in the range of 10 to 20%.

B26: KTLQKPVLPLY (peptide)
peptide: KTLQKPVLPLY
B26 came in with a peptide exchange yield of 20 to 50%.

B27: WSDSTSQTIY (peptide)
peptide: WSDSTSQTIY
The molecule B27 returned a peptide exchange yield of more than 75%.

B28: LLDEDNNIKL (peptide)
peptide: LLDEDNNIKL
Molecule B28 registered a peptide exchange yield of 20 to 50%.

B29: MTSTEQSLYY (peptide)
peptide: MTSTEQSLYY
B29: the peptide exchange yield is 50 to 75%.

B30: NTMDAVPRIDHY (peptide)
peptide: NTMDAVPRIDHY
Molecule B30 displayed a peptide exchange yield of more than 75%.

B31: YLYQAPGSLALY (peptide)
peptide: YLYQAPGSLALY
Turning to B31, the peptide exchange yield was more than 75%.

B32: MTSTEQSLY (peptide)
peptide: MTSTEQSLY
B32 yielded a peptide exchange yield of 50 to 75%.

B33: VAGLEAGVLY (peptide)
peptide: VAGLEAGVLY
B33 registered a peptide exchange yield of 20 to 50%.

B34: ATNIQLNIDTY (peptide)
peptide: ATNIQLNIDTY
Turning to B34, the peptide exchange yield lay within 50 to 75%.

B35: PSSMPECLSYY (peptide)
peptide: PSSMPECLSYY
B35 displayed a peptide exchange yield of 50 to 75%.

B36: EGELSEGEHWY (peptide)
peptide: EGELSEGEHWY
Turning to B36, the peptide exchange yield was in the range of 50 to 75%.

B37: DGIADASNLSYY (peptide)
peptide: DGIADASNLSYY
As for B37, the peptide exchange yield was in the range of 20 to 50%.

B38: SSWSAGENDSY (peptide)
peptide: SSWSAGENDSY
B38 gave a peptide exchange yield of 50 to 75%.

B39: VACGNNPVY (peptide)
peptide: VACGNNPVY
On to B39, for which the peptide exchange yield fell in the range of 50 to 75%.

B40: FTESNQYNIY (peptide)
peptide: FTESNQYNIY
B40 came in with a peptide exchange yield of more than 75%.

B41: GTDKQNSTLRY (peptide)
peptide: GTDKQNSTLRY
As for B41, the peptide exchange yield lay within 50 to 75%.

B42: LQKPVLPLY (peptide)
peptide: LQKPVLPLY
As for B42, the peptide exchange yield lay within 20 to 50%.

B43: FSELNPLALY (peptide)
peptide: FSELNPLALY
On to B43, for which the peptide exchange yield is more than 75%.

B44: PSSMPECLSY (peptide)
peptide: PSSMPECLSY
Consider B44, for which the peptide exchange yield was more than 75%.

B45: DSTDGCLLSF (peptide)
peptide: DSTDGCLLSF
In the case of B45, the peptide exchange yield was 20 to 50%.

B46: NSENHILKY (peptide)
peptide: NSENHILKY
Turning to B46, the peptide exchange yield is more than 75%.

B47: VLDPMLDFY (peptide)
peptide: VLDPMLDFY
As for B47, the peptide exchange yield is more than 75%.

B48: FVDTKVPEH (peptide)
peptide: FVDTKVPEH
Molecule B48 yielded a peptide exchange yield of 20 to 50%.

B49: FHADSDDESF (peptide)
peptide: FHADSDDESF
B49 returned a peptide exchange yield of 10 to 20%.

B50: YSPDSFNVSW (peptide)
peptide: YSPDSFNVSW
The molecule B50 had a peptide exchange yield of 20 to 50%.

B51: MSPDIALLYL (peptide)
peptide: MSPDIALLYL
Turning to B51, the peptide exchange yield lay in the range of 50 to 75%.

B52: DTGYLQLYY (peptide)
peptide: DTGYLQLYY
B52 returned a peptide exchange yield of more than 75%.

B53: MADRGEARL (peptide)
peptide: MADRGEARL
Consider B53, for which the peptide exchange yield was in the range of 20 to 50%.

B54: SLIIDDTEY (peptide)
peptide: SLIIDDTEY
In turn, B54 showed a peptide exchange yield of 20 to 50%.

B55: EDDEDEDLY (peptide)
peptide: EDDEDEDLY
In turn, B55 registered a peptide exchange yield of 50 to 75%.

B56: RFDDINQEF (peptide)
peptide: RFDDINQEF
For B56, the peptide exchange yield fell in the range of 10 to 20%.

B57: SGALDEAAAY (peptide)
peptide: SGALDEAAAY
For the molecule B57, the peptide exchange yield is 20 to 50%.

B58: RLNGSVASY (peptide)
peptide: RLNGSVASY
The molecule B58 showed a peptide exchange yield of 20 to 50%.

B59: EIIRYIFAY (peptide)
peptide: EIIRYIFAY
B59 registered a peptide exchange yield of 20 to 50%.

B60: SRSDFEWVY (peptide)
peptide: SRSDFEWVY
Molecule B60 had a peptide exchange yield of 20 to 50%.

B61: HLLSVSLYY (peptide)
peptide: HLLSVSLYY
In turn, B61 showed a peptide exchange yield of 10 to 20%.

B62: SWSAGENDSYS (peptide)
peptide: SWSAGENDSYS
Molecule B62 registered a peptide exchange yield of 10 to 20%.

B63: AVMEAAFVY (peptide)
peptide: AVMEAAFVY
In turn, B63 yielded a peptide exchange yield of 50 to 75%.

B64: LTDTGYLQLY (peptide)
peptide: LTDTGYLQLY
B64 had a peptide exchange yield of more than 75%.

B65: YMSPDIALLY (peptide)
peptide: YMSPDIALLY
Turning to B65, the peptide exchange yield was more than 75%.

B66: SMDPVTGYQY (peptide)
peptide: SMDPVTGYQY
On to B66, for which the peptide exchange yield was 50 to 75%.
